In article PMC10167949:
The star is where a group is joined. Biotin = O=C1N[C@H]2[C@H](CS[C@H]2CCCCC(=O)*)N1

How the values were obtained:
[1] = molecular target: Phosphorylated MST2 kinase domain (pMST2-K) (human) (UniProt Q13188)
[2] = molecular target: Phosphorylated MST2 kinase linker (pMST2-KL) (human) (UniProt Q13188)
[3] = molecular target: Phosphorylated full-length MST2 (pMST2-FL) (human) (UniProt Q13188)
[4] = molecular target: T1, Unphosphorylated full-length MST2 (MST2-FL) (human) (UniProt Q13188)
T1 sequence: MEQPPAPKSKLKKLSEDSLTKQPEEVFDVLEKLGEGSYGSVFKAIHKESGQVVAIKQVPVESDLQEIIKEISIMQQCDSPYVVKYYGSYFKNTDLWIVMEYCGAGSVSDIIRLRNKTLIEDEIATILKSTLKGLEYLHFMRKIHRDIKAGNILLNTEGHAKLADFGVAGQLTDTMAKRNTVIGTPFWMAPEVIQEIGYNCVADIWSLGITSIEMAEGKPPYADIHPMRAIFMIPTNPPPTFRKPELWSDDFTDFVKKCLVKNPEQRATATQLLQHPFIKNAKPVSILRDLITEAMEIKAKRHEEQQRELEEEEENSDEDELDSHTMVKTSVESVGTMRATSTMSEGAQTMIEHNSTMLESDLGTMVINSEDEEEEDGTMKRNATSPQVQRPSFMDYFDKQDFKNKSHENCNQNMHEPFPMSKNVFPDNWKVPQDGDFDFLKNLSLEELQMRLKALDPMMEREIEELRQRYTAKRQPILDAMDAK

Km^app peptide, radiometric kinase assay (steady state, 30°C) [1]: 27 µM
Km^app peptide, radiometric kinase assay (steady state, 30°C) [2]: 35 µM
Km^app peptide, radiometric kinase assay (steady state, 30°C) [3]: 32 µM
Km^app peptide, radiometric kinase assay (steady state, 30°C) [4]: 139 µM
B1: peptide substrate (Biotin-…-NH2) (peptide)
peptide: Biotin-GGGENWYNTLKRKK-NH2
SMILES: CC(C)C[C@H](NC(=O)[C@@H](NC(=O)[C@H](CC(N)=O)NC(=O)[C@H](Cc1ccc(O)cc1)NC(=O)[C@H](Cc1c[nH]c2ccccc12)NC(=O)[C@H](CC(N)=O)NC(=O)[C@H](CCC(=O)O)NC(=O)CNC(=O)CNC(=O)CNC(=O)CCCC[C@@H]1SC[C@@H]2NC(=O)N[C@@H]21)[C@@H](C)O)C(=O)N[C@@H](CCCCN)C(=O)N[C@@H](CCCNC(=N)N)C(=O)N[C@@H](CCCCN)C(=O)N[C@@H](CCCCN)C(N)=O
